Read-outs that look alike come from different tables or passages of the source.
Experiments:
[1] = Study 101: pharmacokinetics of single doses in healthy subjects; assay type: in vivo, human
Excerpt: (§1) The primary objective of this Phase 1, double-blind, randomized, placebo-controlled study was to determine the safety, tolerability, and pharmacokinetics of single ascending doses of DC009 drug product administered by 15-minute IV infusion in healthy subjects. The secondary objectives were to characterize the pharmacodynamics of single-ascending doses, explore the pharmacokinetic-pharmacodynamic relationships of single-ascending doses, and to determine the RP2D of the DC009 drug product.
(§2) The subject population was healthy adult male and female subjects between the ages of 18 and 65 years. Sixteen healthy subjects completed the study. All subjects received a single dose of DC009 drug product or placebo administered via a 15-minute IV infusion.
Cohort 1 (8 subjects) was administered 0.05 mg/kg DC009 drug product or placebo, and Cohort 0 (8 subjects) was administered 0.025 mg/kg DC009 drug product or placebo.
Primary Endpoints: • Nature and severity of adverse events (AEs) and number of subjects with AEs • Changes from baseline in vital signs, electrocardiogram (ECG) results, laboratory abnormalities, plasmin-antiplasmin complex, euglobulin clot lysis time, platelet aggregation, and physical examination findings • Pharmacokinetic parameters: maximum plasma concentration (Cmax), time to reach the observed maximum (peak) concentration (Tmax), area under the plasma concentration-time curve from time zero to the time of the last quantifiable concentration (AUC0-t), elimination half-life (T1/2), total body clearance of the drug from plasma (CL), and volume of distribution Secondary Endpoints • Pharmacodynamic effects of DC009 drug product on blood pressure, thrombin time (TT), prothrombin time (PT), euglobulin clot lysis time, and activated partial thromboplastin time (aPTT) up to 48 hours after dosing • Relationship between DC009 plasma concentrations and the selected PD and safety parameters • RP2D (recommended phase II dose) Results
The pharmacokinetic parameters of DC009 drug product were assessed included maximum plasma concentration (Cmax), time to reach Cmax (Tmax), area under the plasma concentration-time curve from time zero to infinity (AUC0-∞), area under the plasma concentration-time curve from time zero to the time of the last quantifiable concentration (AUC0-t), elimination half-life (T1/2), total body clearance of the drug from plasma (CL), and volume of distribution at steady state (Vss). A single sample of blood was collected at the following time points for the quantification of DC009 in plasma: at predose, 5, 10, 15 (end of infusion), 20, 25, 30, and 45 minutes; and at 1, 2, 4, 6, 12, 18, and 24 hours after infusion was initiated.

[2] = Study 101: safety and tolerability of single doses in healthy subjects; assay type: in vivo; conditions: both sexes, human, plasma, intravenous; from Subject 001-008 and Subject 001-042, 0.05 mg/kg; read-out: Cmax at which DC009 was tolerable in human
Excerpt: as §1, §2
Cohort 1 (8 subjects) was administered 0.05 mg/kg DC009 drug product or placebo, and Cohort 0 (8 subjects) was administered 0.025 mg/kg DC009 drug product or placebo. […]

[3] = 0.025 mg/kg dose to the 0.05 mg/kg dose

SMILES: CC(NC(=O)C1CCCN1)C(=O)NC(CCCCN)C(=O)NCCCCC(NC(=O)C1Cc2cc(O)c(O)cc2C(C)(C)N1)C(=O)O (stereo not drawn) [DC009, 3S-6,7-dihydroxy-1,1-dimethyl-1,2,3,4-tetrahydro-isoquinoline-3-acyl-Lys(Pro-Ala-Lys)]
- dose-normalized geometric mean ratio for AUC0-inf [1, 3]: 1.40
- dose-normalized geometric mean ratio for Cmax [1, 3]: 1.46
- time measurable in plasma samples after the start of the infusion ([1]; 0.025 and 0.05 mg/kg, single 15-minute IV infusion): only measurable within the first half-hour
- dose proportionality of exposure ([1]; 0.025 vs 0.05 mg/kg): approximately dose proportional
- Cmax ([1]; Cohort 1, 0.05 mg/kg, single 15-minute IV infusion, individual subjects): 120 ng/mL
- Cmax ([1]; both sexes, human, plasma, iv, 0.025 mg/kg, Cohort 0, 0.025 mg/kg, single 15-minute IV infusion, Mean ± SEM, read-out: Cmax): < 110 ng/mL
- Cmax ([1]; both sexes, human, plasma, iv, 0.05 mg/kg, Cohort 1, 0.05 mg/kg, single 15-minute IV infusion, Mean ± SEM, read-out: Cmax): < 110 ng/mL
- Cmax ([1]; both sexes, human, plasma, iv, 0.05 mg/kg, Cohort 1, 0.05 mg/kg, single 15-minute IV infusion, individual subjects, read-out: Cmax): 152 ng/mL
- half-life ([1]; both sexes, human, plasma, iv, 0.025 and 0.05 mg/kg, single 15-minute IV infusion, read-out: T1/2, range): 3 to 4.2 min
- half-life ([1]; both sexes, human, plasma, iv, 0.025 and 0.05 mg/kg, single 15-minute IV infusion, read-out: mean of T1/2 (converted)): 3.24 min
- Tmax ([1]; both sexes, human, plasma, 0.025 and 0.05 mg/kg, single 15-minute IV infusion): 6 to 18 min
- Cmax [2]: ~150 ng/mL
